Here are results for 34 variants from the Human Domainome abundance scans (Beltran et al. 2025).

The chains are these.
B1: Ankyrin-1, residues 1405 to 1484; numbered along this chain, P16157 (parent)
chain: MKMAVISEHLGLSWAELARELQFSVEDINRIRVENPNSLLEQSVALLNLWVIREGQNANMENLYTALQSIDRGEIVNMLE

± gives the uncertainty stated by the source.

The variants in the series derive from B1. Description: abundance fitness (aPCA) (normalised: wild type 0, dead -1); higher = more abundant; growth selection in yeast, the domain comes from the species named. The note with it: Homo sapiens.
As to MKMAVISEHLGLSWAELARELQFSVEDINRIRVENPNSLLEQSVALLNLWVIREGENANMENLYTALQSIDRGEIVNMLE [Q56E], the abundance fitness was 0.055 ± 0.085. MKMAVISEHLGLSWAELARELQFSVEDINRIRVENPNSLLEQSVALLNLWVIREGTNANMENLYTALQSIDRGEIVNMLE [Q56T]: the abundance fitness worked out at 0.158 ± 0.12. Under MKMAVISEHLGLSWAELARELQFSVEDINRIRVENPNSLLEQSVALLNLWVIREGYNANMENLYTALQSIDRGEIVNMLE [Q56Y] stands -0.147 ± 0.17; under MKMAVISEHLGLSWAELARELQFSVEDINRIRVENPNSLLEQSVALLNLWVIREGHNANMENLYTALQSIDRGEIVNMLE [Q56H], -0.213 ± 0.26; under MKMAVISEHLGLSWAELARELQFSVEDINRIRVENPNSLLEQSVALLNLWVIREGLNANMENLYTALQSIDRGEIVNMLE [Q56L], -0.19 ± 0.061.

With MKMAVISEHLGLSWAELARELQFSVEDINRIRVENPNSLLEQSVALLNLWVIREGNNANMENLYTALQSIDRGEIVNMLE [Q56N], the abundance fitness was -0.191 ± 0.47. In the case of MKMAVISEHLGLSWAELARELQFSVEDINRIRVENPNSLLEQSVALLNLWVIREGINANMENLYTALQSIDRGEIVNMLE [Q56I], the abundance fitness came out at 0.097 ± 0.17. Under MKMAVISEHLGLSWAELARELQFSVEDINRIRVENPNSLLEQSVALLNLWVIREGSNANMENLYTALQSIDRGEIVNMLE [Q56S] stands -0.097 ± 0.07.

For MKMAVISEHLGLSWAELARELQFSVEDINRIRVENPNSLLEQSVALLNLWVIREGRNANMENLYTALQSIDRGEIVNMLE [Q56R], the abundance fitness was -0.02 ± 0.046. Under MKMAVISEHLGLSWAELARELQFSVEDINRIRVENPNSLLEQSVALLNLWVIREGPNANMENLYTALQSIDRGEIVNMLE [Q56P] stands -0.052 ± 0.08. Under MKMAVISEHLGLSWAELARELQFSVEDINRIRVENPNSLLEQSVALLNLWVIREGMNANMENLYTALQSIDRGEIVNMLE [Q56M] stands -0.061 ± 0.11; under MKMAVISEHLGLSWAELARELQFSVEDINRIRVENPNSLLEQSVALLNLWVIREGWNANMENLYTALQSIDRGEIVNMLE [Q56W], -0.232 ± 0.16; under MKMAVISEHLGLSWAELARELQFSVEDINRIRVENPNSLLEQSVALLNLWVIREGGNANMENLYTALQSIDRGEIVNMLE [Q56G], -0.035 ± 0.05.

Take MKMAVISEHLGLSWAELARELQFSVEDINRIRVENPNSLLEQSVALLNLWVIREGVNANMENLYTALQSIDRGEIVNMLE [Q56V]: the abundance fitness amounted to 0.07 ± 0.065. With MKMAVISEHLGLSWAELARELQFSVEDINRIRVENPNSLLEQSVALLNLWVIREGQTANMENLYTALQSIDRGEIVNMLE [N57T], the abundance fitness is -0.154 ± 0.16. Under MKMAVISEHLGLSWAELARELQFSVEDINRIRVENPNSLLEQSVALLNLWVIREGQAANMENLYTALQSIDRGEIVNMLE [N57A] stands -0.212 ± 0.13.

Consider MKMAVISEHLGLSWAELARELQFSVEDINRIRVENPNSLLEQSVALLNLWVIREGQRANMENLYTALQSIDRGEIVNMLE [N57R], for which the abundance fitness is -0.191 ± 0.11. As to MKMAVISEHLGLSWAELARELQFSVEDINRIRVENPNSLLEQSVALLNLWVIREGQMANMENLYTALQSIDRGEIVNMLE [N57M], the abundance fitness is -0.075 ± 0.13. Under MKMAVISEHLGLSWAELARELQFSVEDINRIRVENPNSLLEQSVALLNLWVIREGQWANMENLYTALQSIDRGEIVNMLE [N57W] stands -0.175 ± 0.08; under MKMAVISEHLGLSWAELARELQFSVEDINRIRVENPNSLLEQSVALLNLWVIREGQVANMENLYTALQSIDRGEIVNMLE [N57V], -0.068 ± 0.095.

For the variant MKMAVISEHLGLSWAELARELQFSVEDINRIRVENPNSLLEQSVALLNLWVIREGQKANMENLYTALQSIDRGEIVNMLE [N57K], the abundance fitness is -0.117 ± 0.11. Under MKMAVISEHLGLSWAELARELQFSVEDINRIRVENPNSLLEQSVALLNLWVIREGQYANMENLYTALQSIDRGEIVNMLE [N57Y] stands 0.093 ± 0.21; under MKMAVISEHLGLSWAELARELQFSVEDINRIRVENPNSLLEQSVALLNLWVIREGQPANMENLYTALQSIDRGEIVNMLE [N57P], -0.061 ± 0.12.

In the case of MKMAVISEHLGLSWAELARELQFSVEDINRIRVENPNSLLEQSVALLNLWVIREGQCANMENLYTALQSIDRGEIVNMLE [N57C], the abundance fitness is -0.168 ± 0.21. Under MKMAVISEHLGLSWAELARELQFSVEDINRIRVENPNSLLEQSVALLNLWVIREGQIANMENLYTALQSIDRGEIVNMLE [N57I] stands -0.636 ± 0.47; under MKMAVISEHLGLSWAELARELQFSVEDINRIRVENPNSLLEQSVALLNLWVIREGQFANMENLYTALQSIDRGEIVNMLE [N57F], -0.437 ± 0.19; under MKMAVISEHLGLSWAELARELQFSVEDINRIRVENPNSLLEQSVALLNLWVIREGQGANMENLYTALQSIDRGEIVNMLE [N57G], 0.017 ± 0.058. With MKMAVISEHLGLSWAELARELQFSVEDINRIRVENPNSLLEQSVALLNLWVIREGQEANMENLYTALQSIDRGEIVNMLE [N57E], the abundance fitness stood at 0.163 ± 0.15. Under MKMAVISEHLGLSWAELARELQFSVEDINRIRVENPNSLLEQSVALLNLWVIREGQHANMENLYTALQSIDRGEIVNMLE [N57H] stands -0.255 ± 0.29; under MKMAVISEHLGLSWAELARELQFSVEDINRIRVENPNSLLEQSVALLNLWVIREGQDANMENLYTALQSIDRGEIVNMLE [N57D], -0.072 ± 0.15; under MKMAVISEHLGLSWAELARELQFSVEDINRIRVENPNSLLEQSVALLNLWVIREGQLANMENLYTALQSIDRGEIVNMLE [N57L], -0.108 ± 0.066. Under MKMAVISEHLGLSWAELARELQFSVEDINRIRVENPNSLLEQSVALLNLWVIREGQNAWMENLYTALQSIDRGEIVNMLE [N59W] stands -0.371 ± 0.056; under MKMAVISEHLGLSWAELARELQFSVEDINRIRVENPNSLLEQSVALLNLWVIREGQNAHMENLYTALQSIDRGEIVNMLE [N59H], -0.376 ± 0.28; under MKMAVISEHLGLSWAELARELQFSVEDINRIRVENPNSLLEQSVALLNLWVIREGQNAVMENLYTALQSIDRGEIVNMLE [N59V], -0.078 ± 0.046.
